In publication PMC11638004, “Phosphorylation of auxin signaling repressor IAA8 by heat-responsive MPKs causes defective flower development” (Plant Physiology, 2024):

Key:
Assay in all cases: pull-down; 2 μg GST-IAA8 or GST on glutathione-Sepharose-4B beads, 5 μg His-MPK added, overnight at 4°C; 50 mM Tris-HCl pH 7.5, 200 mM NaCl, 0.1 mM EDTA, 0.5 mM DTT, 1% Triton X-100; four washes; immunoblot with anti-His
Conditions in all cases: both partners purified
His-MPK3 = target: T1, His-MPK3 (Arabidopsis thaliana, UniProt Q39023 1-370)
T1 construct: The N-terminal position of the His tag is read from the name His-MPK3 and the vector pQE30; also called His-fused MPK3; source: E. coli M15, purified (Ni-NTA agarose); not shown: His, N-terminal, kept
T1 sequence (looked up): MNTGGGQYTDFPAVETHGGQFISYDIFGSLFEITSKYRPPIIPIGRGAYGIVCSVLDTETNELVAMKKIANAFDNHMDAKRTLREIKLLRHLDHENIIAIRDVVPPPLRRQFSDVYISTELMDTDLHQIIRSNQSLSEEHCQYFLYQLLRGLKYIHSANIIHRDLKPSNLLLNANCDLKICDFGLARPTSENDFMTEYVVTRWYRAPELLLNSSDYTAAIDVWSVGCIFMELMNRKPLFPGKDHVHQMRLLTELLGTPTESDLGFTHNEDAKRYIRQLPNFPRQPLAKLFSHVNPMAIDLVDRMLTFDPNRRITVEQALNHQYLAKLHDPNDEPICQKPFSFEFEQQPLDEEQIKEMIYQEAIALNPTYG

His-MPK4 = target: T2, His-MPK4 (Arabidopsis thaliana, UniProt Q39024 1-376)
T2 construct: The N-terminal position of the His tag is read from the name His-MPK4 and the vector pQE30; also called His-fused MPK4; source: E. coli M15, purified (Ni-NTA agarose); not shown: His, N-terminal, kept
T2 sequence (looked up): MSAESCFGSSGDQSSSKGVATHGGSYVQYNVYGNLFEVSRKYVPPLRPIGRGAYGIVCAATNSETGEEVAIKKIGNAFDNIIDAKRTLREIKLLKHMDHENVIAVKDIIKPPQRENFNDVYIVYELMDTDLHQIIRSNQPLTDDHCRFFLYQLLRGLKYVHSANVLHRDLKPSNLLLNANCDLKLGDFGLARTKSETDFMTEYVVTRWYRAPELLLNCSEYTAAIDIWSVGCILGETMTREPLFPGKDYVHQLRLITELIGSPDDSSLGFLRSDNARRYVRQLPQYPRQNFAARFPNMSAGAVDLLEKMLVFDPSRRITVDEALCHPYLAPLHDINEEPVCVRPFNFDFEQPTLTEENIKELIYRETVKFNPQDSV

His-MPK6 = target: T3, His-MPK6 (Arabidopsis thaliana, UniProt Q39026 1-395)
T3 construct: The N-terminal position of the His tag is read from the name His-MPK6 and the vector pQE30; also called His-fused MPK6; source: E. coli M15, purified (Ni-NTA agarose); not shown: His, N-terminal, kept
T3 sequence (Q39026 whole entry, the tested form may be a part): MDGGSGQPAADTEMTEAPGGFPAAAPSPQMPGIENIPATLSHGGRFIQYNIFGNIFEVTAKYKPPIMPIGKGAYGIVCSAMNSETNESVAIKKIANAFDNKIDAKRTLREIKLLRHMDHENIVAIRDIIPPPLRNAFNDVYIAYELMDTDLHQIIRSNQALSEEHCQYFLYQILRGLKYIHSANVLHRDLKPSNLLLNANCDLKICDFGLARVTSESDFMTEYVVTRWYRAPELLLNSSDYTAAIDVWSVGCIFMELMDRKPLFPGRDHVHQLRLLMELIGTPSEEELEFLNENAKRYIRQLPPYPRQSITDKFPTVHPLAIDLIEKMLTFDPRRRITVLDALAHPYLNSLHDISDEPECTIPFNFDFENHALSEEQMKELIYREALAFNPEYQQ

Measured: binding result

B1: GST-IAA8 (natural protein, Arabidopsis thaliana, UniProt Q38826 1-321, looked up)
chain: MSYRLLSVDKDELVTSPCLKERNYLGLSDCSSVDSSTIPNVVGKSNLNFKATELRLGLPESQSPERETDFGLLSPRTPDEKLLFPLLPSKDNGSATTGHKNVVSGNKRGFADTWDEFSGVKGSVRPGGGINMMLSPKVKDVSKSIQEERSHAKGGLNNAPAAKAQVVGWPPIRSYRKNTMASSTSKNTDEVDGKPGLGVLFVKVSMDGAPYLRKVDLRTYTSYQQLSSALEKMFSCFTLGQCGLHGAQGRERMSEIKLKDLLHGSEFVLTYEDKDGDWMLVGDVPWEIFTETCQKLKIMKGSDSIGLAPGAVEKSKNKERV
notes: IAA8 (Indole-3-Acetic Acid 8), Arabidopsis thaliana, At2g22670, full length, amplified from an Arabidopsis cDNA library and cloned into pGEX-4T-1; The N-terminal position of GST is read from the name GST-IAA8 and the vector pGEX-4T-1; also called GST-IAA8^WT; GST-fused IAA8; source: E. coli BL21 (DE3), purified (glutathione Sepharose-4B); not shown: GST, N-terminal, kept
binds: His-MPK3 | His-MPK4 | His-MPK6
